Consider 70 sequences from the domain aggregation screens of Martell et al. (2025).
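Note: 20 min heating vs room temperature control held 20 min.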

A short description of this data set: soluble fraction after stress (log2 fold change); higher = more stays soluble; pooled small domains, quantitative proteomics. Conditions: stress: 75 degC.
Take “HMSESIFTLYGDEKFEKIRYYLKERGFITLDALARFDFDELLFVPGVSELLISEAKQLFSRYDTSSLAAKE”: the “soluble fraction (log2)” value is -0.584. On to “HMSETAEFIIQVNGKVRAKLQLPTDISKEEIQKLALADENVQKYLNGEPRKIIFPPNTRLVSIV”, for which the “soluble fraction (log2)” value was -0.315. On to “HMSETEEWTVEGGQAGDRIDRHVAAMLGDDVSRSQVQQWIRAGRVTVNGRAVKPSDTVEEGDRVAVDLPEP”, for which the “soluble fraction (log2)” value is -0.189. As to “HMSETVYQYVARQLRDMLGSGEIPVGQQLPTYRELAKRFQVSLSVIQRAMRQLKAEAVVSIAHGQGVKAVR”, the “soluble fraction (log2)” value is -1.16. For the sequence “HMSEVPVLVAKTDIKELELIDDRKVTLINVPQKFKMPGSFNSPEEVYNTIAAVPIKEGEQITKPRVTWP”, the “soluble fraction (log2)” value came out at 0.0951. “HMSEVSEILTRARFFAGVKTDAELSTLLKIPYGTLIGWKTRKNIPESRIAQMALILGIRRDTLIPA”: the “soluble fraction (log2)” value is -1.86. As for “HMSEYIFGKNVVKEAFNNPSRIEEIYVLDKNMEFVSLAKKYHIKYTVITSSEMNKMVSGNHQGVVALVK”, the “soluble fraction (log2)” value is -2.1. Take “HMSFDENEALRKALDVFWEKGYDGTSLSDLTEAMGINKPSLYATFGNKDQLFLKAIEMYENR”: the “soluble fraction (log2)” value was -1.4. As for “HMSFDTFKKVFSNLVEKSGYSDAEIARRLGVNRSTISRWKSGEQSPPLPKVKEIANFFGVSPMVFVD”, the “soluble fraction (log2)” value is -0.41. Regarding “HMSFFNGNQMKILRKKLQLNQEEMGEKLGIKKSYVSQLENNRKEITEEIDQILQELEQEYQDKM”, the “soluble fraction (log2)” value is -0.642. As to “HMSFGESLKKLSIALNSIRKLATTDAGKKDPKVADLLGQIRDTFNSYRTHLRKNYPDLYSGIKNQL”, the “soluble fraction (log2)” value is -0.977.

For the sequence “HMSFGKKLRSLRQEKKLSQVELSKKLNVTSQALSQYELGKRIPDAEMIIRIADFFDVSVDYLLDRT”, the “soluble fraction (log2)” value is -1.69. As for “HMSFGWESLENKEGVADTDLHPSGWVRIEDSRIFVVSEGDFINKGSKVTVLTVDGNRVVVRELI”, the figure is -2.1. As for “HMSFNISPTKKLILELIMNGTAAVEAIAVKAGISKGMAYNHLRELRSMGYITDEGGYKITDSGRLAV”, the figure is -2.39. In the case of “HMSFNNHYEILQVQPSADREVIEAAAKALLKKHHPDLGGRNTITSHIVQAKKVLTDTSQRADFDARLRERL”, the “soluble fraction (log2)” value was -0.135.

For the sequence “HMSFNSQENKSVLWQFLLENNFFIGLSDKKFNKVKDIFEKNIQSISIVNDSISNKNKILIQKMMEELELL”, the “soluble fraction (log2)” value was -3.38. For the sequence “HMSFPDTYFKGNKVIGLSYNDLKKFLNNAGYSKFDEEVEEWGEKRVSIEDDMVDFYLEDDKVVSI”, the “soluble fraction (log2)” value is -0.361. The figure for “HMSFPFLMPNLEGLQLDQVRVILEENGLEIGQENYQPDSKFGPGTIINHQPSVDTVVQTGQKVNLQISGTD” is 0.126; for “HMSFSSLSNDILSEIQKDNNITYDELSEKLQKDRATIYRNMKKLVENGLLKRVGGRKSGHWEIIE” it is -0.102; for “HMSFVDFYGLFTTELQRLAELPVTADELIKNTGLHKSQLTDWLKRAEEDGVVKKLNRPVRYQVEKK” it is -1.66. As for “HMSGAQIQQLLESRAPQPGMNPDMIVRRKTYMNNVFNALKGALLRVANGSSPEEVKTEVDAAIQVDPDKL”, the figure is 0.353. “HMSGEVLTAVVPETASGERLDKVLPQIFPPYSRSQLQTWLKEGRVTLDREIPAARLAVIGGETLRLEVPSL”: the “soluble fraction (log2)” value was -0.112.

Regarding “HMSGFFVYPNPAKSNIIHFPNKKSFYIYDTSGRLLIEGKGKDFIDVSTLDRGVYLLKTFENDIVKIII”, the “soluble fraction (log2)” value is -1.1. In the case of “HMSGGIVRLAVKPWGEVFVDGASRGITPPLKQLTLDAGVHRIEIRNPAGPSWTKDVDVVAGQPTTVSHRF”, the “soluble fraction (log2)” value is -0.494. Consider “HMSGITDIITDGKATSRPVVVTDGGHIRVLSPYTSFAIYTLGGMSLPTESRLEPGIYIVVVDSNAVKVAV”, for which the “soluble fraction (log2)” value is -1.59. As for “HMSGLGELTPRELEVLELMAQGLSNSQIAGRLFLSGAAVAKHVSSIFSKLGFEPGDENRRVRAILAFLNR”, the figure is -1.41; as for “HMSGLLTTSKLAQKHKMKTEPMLEKLTAAGYLEWRDDKHSLTEQGKKAGGQFKTGRFGAYFLWPEDLV”, -0.116.

For the sequence “HMSGPDGLTEREIEVLRLLASGLSNRAIGERLYISTNTAANHVRSILLKTGAANRTQAAMYAADHEML”, the “soluble fraction (log2)” value was -1.66.

On to “HMSGPFTELTPREREILSHLAEGQSNKVIARHLQISDGTVKLHVKAILRKLEVHSRVEAAVMAVEHGV”, for which the “soluble fraction (log2)” value is -2.18. “HMSGPMVPNVVGLSEEMARALLSDYSITIKHAHDGVIPKDRVASQLPLATTHAKVGSSVVLTIS”: the “soluble fraction (log2)” value was -0.557.

Regarding “HMSGQLTEEQVKQIVTTAVKNSSGSTLTAAEVSRIVSTAVANNLTADQVKTVVNNALAGITTDISTLKA”, the “soluble fraction (log2)” value was determined as 0.124. Turning to “HMSGSFDVTLDYLNSLRNLYPAIDVEQEFRKMYAWLDSNPKNRKTERGIKRFITGWLGRAQDKAP”, the “soluble fraction (log2)” value is -1.31.

Take “HMSGSLLQTRQRLQALTDLGHYKGDLAAAWGPEAIEALKRAQAALGITVDGKWGPETEDAIQVALQAQT”: the “soluble fraction (log2)” value was -0.00363. Consider “HMSGSPREQAESEYRKAIAAVNQGRVSEATESLRAALRLDAFQVAARQLLVKLLLEAKNQDEAIQVLR”, for which the “soluble fraction (log2)” value is -0.986. In the case of “HMSGTMYATAEVNVRSTYSSDGTIYGTLSKGTAVEITGTTDNGWVRVKYNGTTAYVYADYLSWKAP”, the “soluble fraction (log2)” value is -2.41. On to “HMSGYAIVNNQPGRTLNLRNSPSQSNNIIGQIPSGTRLQLISRGETWSEVIFQTTRGFVMSSFLRFET”, for which the “soluble fraction (log2)” value was -2.38. The figure for “HMSHGNAALTPRQRLRLARLVVDDQWSVSAAAEFFRVSYPTAAKWARRYVELGPAGMADRSS” is -1.62; for “HMSHRVGDVVELTAVRMNDQGVFLDAGTGNTSDDILLHKHQMTSPVSVGDKVKVQLYLDAKNRITASMKL” it is -0.36. On to “HMSIEIIEITSNSSPKNLSEIIDIDATQIVADLMGLGIMKAIDTPLENSEIEQLLEKYNLIAEFVE”, for which the “soluble fraction (log2)” value is -2.76. The figure for “HMSILEIFGRNVQKYRKEQRLSQEKLAEYAGLHRTYIGMIERAEKNITLVNIEKIAKALNINLTKLLE” is -4.25; for “HMSILTELDIGDKVEVVAGPFKGIQANITRIEPVRKEVTVILLDAPYQLPVTVDADYLKIIQKS” it is -1.63; for “HMSINISFEPADHLGKDVIFIRFPYDNEWIQRVRKLKGAKWSQSQRAWHVPDTEHYRTLFQLPQKI” it is -2.73. As for “HMSIQDLMNSKDLSGFKVEMLSNEDIVKYKSMLQSSGFSESQAEQLALQRGLPTSELIKLRTRISDVAVT”, the “soluble fraction (log2)” value is 0.199. As to “HMSIQELMNSKDLSSFKVEMLSDEDIAKYKGLLQNSGLTEAQAEQMALQRGLPSSELLKLKARLSGI”, the “soluble fraction (log2)” value amounted to 0.118.

For the sequence “HMSIQREIILEVIKNNRTHPTAEEIYILVTKKEPKISRSTVYRNINILVEKGIIEKITIATGPDRYDY”, the “soluble fraction (log2)” value was -1.53. The figure for “HMSISDEDFAKLLDFVKEKWDAGELDNAEDIKAAISEGEKEFGVSLDESTRTTLASALQQLN” is 0.274; for “HMSIYDAPIEDLKFSTRIFNSLKRADIHTVADLIAHSRDDLMKVRNLGATSLDELIEKLGTHGLQLADP” it is -0.412; for “HMSIYYQIYESLKKDLSNNLYKPGEKLPSENVLSKRFGVNRHTIRRSLQLLKNEGILFSKRGSGIIVHD” it is -3.45. Take “HMSKDKEKRTREHVLGILKKYDKVMTDKAFTVFKKMIKDESILEMELIKLINFIGERKEIRSKDVLAVVTE”: the “soluble fraction (log2)” value was -0.504. Consider “HMSKEIQNILASLPSVDVLLKQIDPIYPHGKAKEATQQVVARLRESVVDGTRKTVIDQKEVIAMIHKQLEE”, for which the “soluble fraction (log2)” value is -0.293.

For “HMSKETTYEVLSLKGDEWQTDTIYSDRDEAIEAARNLHGDPHIDGAKVISEVYDDKTGGSKETTIFNT”, the “soluble fraction (log2)” value amounted to 0.535.

As for “HMSKHAIQNELEKIEGIGKQTADSLLKEFKSVKKLRTLPLSEIEKVIGKSKATIVFEALHKDK”, the “soluble fraction (log2)” value was 0.00931. “HMSKHATLLEALADLSVKLKPHSQLPSERALSEEYGVSRMTLRRAIDVLQARGYIYSVPSKGLFVSEP”: the “soluble fraction (log2)” value is -1.89. As for “HMSKHATLLEALAELTVKLKPHTQLPSERQLSEDFGVSRMTLRRAIDVMQSRGYIYTVPSKGLYVSEP”, the figure is -1.72; as for “HMSKIRTFRVKTVAVDQAYQVLKDYSPIKISTESNAVIIDLDESKTPAEIAGYLEKNGIKVDNIEVIAESE”, 0.962; as for “HMSKISKENEQQVIQIVQTLLLNVQDKSLITTQILNEKINLAVSLDTKYKENLDRDYIIEELIRRYSVW”, -2.93. As for “HMSKKIVLPAAITVKKFSETLDMPLGTVISELMKNGILATINERIDFETASIIAQDLGYEVSEEV”, the figure is -0.216; as for “HMSKKQEQALQSREKLLDAATALFAEHGYRDTSVQAIGEKAGVSRGSIFWHFGSKEGLLWAVVERAFTA”, 0.303; as for “HMSKKTQKDEVVDLFLKTGNEPLHYKEISKKTGIIVHNVRRITGQNVVGKTDNPVFKRVSPGVYKLID”, -0.72. “HMSKLSVSSLSSPEVQNQLKAAGIDVNSRQYQVVMKDMMGALDGRAGYTTVSAIKNRMRQYNADGDY”: the “soluble fraction (log2)” value was found to be 0.687. Turning to “HMSKMVEMSQEKSREKVARVKIEIQKMLDRKERVTVSGLERATGFSNSFFYRNEEVNQAVKEAQLKQ”, the “soluble fraction (log2)” value is -0.138. For “HMSKNIRQQFLDVLPKTFDRNQYLETAKKLSINAKTAEGYIKKFVEANLLDHPKHNHYINLKKVEEVETK”, the “soluble fraction (log2)” value was -0.0919. “HMSKNYYEILGVTPDVELSQLKAVYRRLVRKYHPDINPDGELIFKDITEAYEVLSDEKQRKQYDMINGF”: the “soluble fraction (log2)” value is -0.596. Consider “HMSKPILSFVDPEKDPSHYVKRYITEETYKDWFSEHFPDYTLYEGIGITQEEYRNIVNELTKP”, for which the “soluble fraction (log2)” value was -0.5. For the sequence “HMSKPIYSELLREIRSGDVKELTLIPQRREVLVEYSDGRKATVSILANDQQVLRTAESAGVPLTVK”, the “soluble fraction (log2)” value is -0.0278. The figure for “HMSKPVFQTHSVRSADSATVFDVLQTLLAGTPDARIAIDPKTNAIVAWARPETQEVIAKSIMEMEG” is 0.0746; for “HMSKQIEVPDVTDMTVSDAIDVLQDKGFVVSDEQKEVASSEIEEGRVVRTSPAVGSKRKDGTVVTLYVSI” it is 0.353. “HMSKTEEIAYTTFVKYLENKDIEEVYLGNNAKIKVILKDGREMITDNPRTADFKKDLLLHDIKVVEKT”: the “soluble fraction (log2)” value is -0.0889. With “HMSKYGIAYSEVLEILKHIPIEDYNKIPRNEIELFETYADKDFTFNYDSSKTLEEQNVSNITKGIIIL”, the “soluble fraction (log2)” value is -0.56. “HMSLEEQNGAKDRQVEAYELLLKAQRALDQEDTAGFQAAMKDLEPLSSQLDAQGQTLYHELLPFVS”: the “soluble fraction (log2)” value was -0.232.
